IntAct's records for PubMed 35016035

B1: Protein FAM90A1 (Homo sapiens), Q86YD7 (parent)
chain: MMARRDPKPGAKRLVRAQTLQKQRRAPVGPRAPPPDEEDPRLKCKNCEAFGHTARSTRCPMKCWKAALVPPNFGEKEGKENLKPWKPQVEANPGPLNKDKGEKEERPRPQDPQRKALLHIFSRKPPEKPLPNQKGSTESSDYLRVASGPMPVHTTSKRPRVDPVLSDRSATEMSDRGSVLASLSPLRKASLSSSSSLGPKERQTGAAADIPQTAVRHQGPEPLLVVKPTHSSPAGGCREVPQAASKTHGLLQAVSPQAQDKRPAVTSQPCPPAATHSLGLGSNLSFGPGAKRSAPAPIQACLNFPKKPRLGPFQIPESAIQGGELGAPENLQPPPAATELGPRTSPQTGTRTPAQVLSGDRQPPHSRPCLPTAQACTMSHHPAASHDGAQPLRVLFRRLENGRWSSSLLTAPSFHSPEKPGAFLAQSPHVSEKSEGPCVRVPPSVLYEDLQVPSSSEDSDSDLE
B2: Speedy protein E4 (Homo sapiens), A6NLX3 (parent)
chain: MASGQARPPFEEESPQPSTTVRSPEVVVDDEVPGPSAPWIDPSPQPQSLGLKRKSEWSDESEEELEEELELERAPEPEDTWVVETLCGLKMKLKRKRASSVLPEHHEAFNRLLGDPVVQKFLAWDKDLRVSDKYLLAMVIAYFSRAGLFSWQYQRIHFFLALYLASDMEEDNQAPKQDIFSFLYGKNYSQRPLFHKLRYQLLCSMRWRTWVSPEEMEEIQAYDPEHWVWARDRTLIS

Variants of: B1
Settings: with brd4_human BRD4, O60885

| effect of a mutation on the interaction | Variant |
| --- | --- |
| disrupting interaction strength | MMARRDPKPGAKRLVRAQTLQKQRRAPVGPRAPPPDEEDPRLKCKNCEAFGHTARSTRCPMKCWKAALVPPNFGEKEGKENLKPWKPQVEANPGPLNKDKGEKEERPRPQDPQRKALLHIFSRKPPEKPLPNQKGSTESSDYLRVASGPMPVHTTSKRPRVDPVLSDRSATEMSDRGSVLASLSPLRKASLSSSSSLGPKERQTGAAADIPQTAVRHQGPEPLLVVKPTHSSPAGGCREVPQAASKTHGLLQAVSPQAQDKRPAVTSQPCPPAATHSLGLGSNLSFGPGAKRSAPAPIQACLNFPKKPRLGPFQIPESAIQGGELGAPENLQPPPAATELGPRTSPQTGTRTPAQVLSGDRQPPHSRPCLPTAQACTMSHHPAASHDGAQPLRDLDRRLENGRDSDSLLTAPSFHSPEKPGAFLAQSPHVSEKSEGPCVRVPPSVLYEDLQVPSSSEDSDSDLE [V394D;F396D;W404D;S406D] |

Variants of: B2
Settings: with brd4_human BRD4, O60885

| effect of a mutation on the interaction | Variant |
| --- | --- |
| disrupting interaction strength | MASGQARPPFEEESPQPSTTVRSPEVVVDDEVPGPSAPWIDPSPQPQSLGLKRKSEWSDESEEELEEELELERAPEPEDTWVDETDCGLKDKDKRKRASSVLPEHHEAFNRLLGDPVVQKFLAWDKDLRVSDKYLLAMVIAYFSRAGLFSWQYQRIHFFLALYLASDMEEDNQAPKQDIFSFLYGKNYSQRPLFHKLRYQLLCSMRWRTWVSPEEMEEIQAYDPEHWVWARDRTLIS [V83D;L86D;M91D;L93D] |
